Literature values in publication PMC11988805.
pKd: −log10 of the molar value.

Experiments:
[1] = biological target: stapled BH3 peptide BH3 (Homo sapiens) (UniProt P55957)
[2] = biological target: unstapled BH3 peptide BH3 (Homo sapiens) (UniProt P55957)

pKd [1]: 7.41 | pKd [2]: 6.57
Substance: Bcl-2 (from UniProt P10415)
